In US20040141918:

System: Int6 protein expressed in bacteria using the QUIA Express Type 4 vector, purified
Sequence (chain, as listed by the source): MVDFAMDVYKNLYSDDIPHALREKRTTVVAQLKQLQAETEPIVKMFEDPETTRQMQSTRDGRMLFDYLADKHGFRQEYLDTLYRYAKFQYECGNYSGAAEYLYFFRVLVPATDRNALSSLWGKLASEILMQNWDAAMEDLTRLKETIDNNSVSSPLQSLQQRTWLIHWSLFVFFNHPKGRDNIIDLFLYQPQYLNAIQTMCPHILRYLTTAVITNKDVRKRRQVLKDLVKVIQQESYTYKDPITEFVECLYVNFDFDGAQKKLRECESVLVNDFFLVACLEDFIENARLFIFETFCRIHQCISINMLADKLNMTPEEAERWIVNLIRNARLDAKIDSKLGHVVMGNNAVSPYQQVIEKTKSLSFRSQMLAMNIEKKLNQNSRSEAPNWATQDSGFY

protein kinase C was tested, and the “phosphorylation by PKC” value was “shown to be phosphorylated by PKC (data not shown)”.
